Measured values published in article PMC11514458.

What was measured:
RAD51;BCDX2(R159A) [1] = biological target: T1, RAD51;BCDX2(R159A) (human?;human?, UniProt Q06609;O15315;O43502;O75771;O43543 1-339;1-384;1-376;1-328;1-280, |R159A); test: BLI; RAD51 loading retained; EMSA: 20 mM Tris-HCl pH 7.5, 2 mM MgCl2, 2 mM ATP, 37 C, 20 nM DNA, glutaraldehyde fixation; stopped-flow: 25 mM Tris-HCl pH 7.5, 5 mM MgCl2, 50 mM KCl, 2 mM ATP, 0.5 mM EDTA, 10% glycerol, 37 C; BLI: 50 mM Tris-HCl pH 7.5, 2 mM ATP, 50 mM KCl, 5 mM MgCl2, 0.05% Tween 20, room temperature; details: protein: recombinant;recombinant; tags: ;; copies: 1;1;1;1;1; label: 3' Cy3 on strand 1; reversed fork of 4 strands, 3' ssDNA tail
T1 sequence (Q06609 whole entry, stated change not applied, one chain of several): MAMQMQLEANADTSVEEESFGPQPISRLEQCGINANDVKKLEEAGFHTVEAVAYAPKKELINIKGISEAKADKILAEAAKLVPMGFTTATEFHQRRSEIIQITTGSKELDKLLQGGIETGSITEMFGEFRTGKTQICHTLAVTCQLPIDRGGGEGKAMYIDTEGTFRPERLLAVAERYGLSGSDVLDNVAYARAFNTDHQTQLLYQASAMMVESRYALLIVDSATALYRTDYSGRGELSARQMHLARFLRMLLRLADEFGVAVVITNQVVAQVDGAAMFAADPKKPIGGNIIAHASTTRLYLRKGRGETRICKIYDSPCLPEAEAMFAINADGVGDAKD

RAD51;BCD(R266A)X2 [2] = biological target: T2, RAD51;BCD(R266A)X2 (human?;human?, UniProt Q06609;O15315;O43502;O75771;O43543 1-339;1-384;1-376;1-328;1-280, |R266A); test: as above; details: protein: recombinant;recombinant; tags: ;; copies: 1;1;1;1;1; label: 3' Cy3 on strand 1; reversed fork of 4 strands, 3' ssDNA tail
T2 sequence (Q06609 whole entry, stated change not applied, one chain of several): as above

RAD51 [3] = biological target: T3, RAD51 (UniProt Q06609 1-339); test: stopped-flow fluorescence (global fit); initial weak binding step; 2 mM ATP, 5 mM Mg2+; EMSA: 20 mM Tris-HCl pH 7.5, 2 mM MgCl2, 2 mM ATP, 37 C, 20 nM DNA, glutaraldehyde fixation; stopped-flow: 25 mM Tris-HCl pH 7.5, 5 mM MgCl2, 50 mM KCl, 2 mM ATP, 0.5 mM EDTA, 10% glycerol, 37 C; BLI: 50 mM Tris-HCl pH 7.5, 2 mM ATP, 50 mM KCl, 5 mM MgCl2, 0.05% Tween 20, room temperature; details: protein: recombinant; chain copies: 10; label: Cy3 at 3' or 5'
T3 sequence (Q06609 whole entry): as the sequence (Q06609 whole entry, stated change not applied, one chain of several) above

BCDX2 complex [4] = biological target: T4, BCDX2 complex (human, UniProt O15315;O43502;O75771;O43543 1-384;1-376;1-328;1-280); test: stopped-flow fluorescence (amplitude, A1); Kd,1 initial complex; ATP, Mg2+; EMSA: 20 mM Tris-HCl pH 7.5, 2 mM MgCl2, 2 mM ATP, 37 C, 20 nM DNA, glutaraldehyde fixation; stopped-flow: 25 mM Tris-HCl pH 7.5, 5 mM MgCl2, 50 mM KCl, 2 mM ATP, 0.5 mM EDTA, 10% glycerol, 37 C; BLI: 50 mM Tris-HCl pH 7.5, 2 mM ATP, 50 mM KCl, 5 mM MgCl2, 0.05% Tween 20, room temperature; details: protein: recombinant; tags: Strep-tag and His-tag (XRCC2 N-terminal His); copies: 1;1;1;1; label: Cy3 at 3' or 5'
T4 sequence 1: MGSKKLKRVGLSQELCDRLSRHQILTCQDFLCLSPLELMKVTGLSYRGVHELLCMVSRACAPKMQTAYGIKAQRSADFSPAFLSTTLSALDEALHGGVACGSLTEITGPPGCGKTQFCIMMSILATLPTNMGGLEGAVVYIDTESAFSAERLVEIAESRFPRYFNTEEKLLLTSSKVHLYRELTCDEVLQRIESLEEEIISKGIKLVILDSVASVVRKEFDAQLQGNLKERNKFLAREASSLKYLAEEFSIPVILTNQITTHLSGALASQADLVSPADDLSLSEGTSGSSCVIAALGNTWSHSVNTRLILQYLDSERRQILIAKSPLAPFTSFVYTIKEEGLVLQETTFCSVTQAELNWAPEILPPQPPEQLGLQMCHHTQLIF
T4 sequence 2: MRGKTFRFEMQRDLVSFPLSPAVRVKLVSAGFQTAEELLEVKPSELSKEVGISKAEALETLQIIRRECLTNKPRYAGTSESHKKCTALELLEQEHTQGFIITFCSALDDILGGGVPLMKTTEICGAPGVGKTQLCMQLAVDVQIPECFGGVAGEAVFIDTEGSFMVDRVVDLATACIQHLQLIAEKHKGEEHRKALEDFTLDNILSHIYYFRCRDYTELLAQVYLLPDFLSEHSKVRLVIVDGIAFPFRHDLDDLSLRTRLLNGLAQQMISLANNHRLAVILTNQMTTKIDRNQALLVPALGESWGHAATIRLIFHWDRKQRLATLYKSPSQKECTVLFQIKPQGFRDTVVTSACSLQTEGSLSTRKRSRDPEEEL
T4 sequence 3: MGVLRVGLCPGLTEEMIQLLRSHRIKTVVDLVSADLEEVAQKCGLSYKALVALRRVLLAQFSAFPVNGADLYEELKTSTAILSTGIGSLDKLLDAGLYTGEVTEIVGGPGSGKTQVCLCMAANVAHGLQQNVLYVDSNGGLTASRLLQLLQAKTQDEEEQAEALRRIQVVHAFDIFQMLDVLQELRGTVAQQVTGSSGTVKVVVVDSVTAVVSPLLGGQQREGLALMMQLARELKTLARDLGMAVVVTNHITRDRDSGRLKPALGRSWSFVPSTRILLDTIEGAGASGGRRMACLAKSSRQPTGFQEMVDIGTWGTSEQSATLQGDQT
T4 sequence 4: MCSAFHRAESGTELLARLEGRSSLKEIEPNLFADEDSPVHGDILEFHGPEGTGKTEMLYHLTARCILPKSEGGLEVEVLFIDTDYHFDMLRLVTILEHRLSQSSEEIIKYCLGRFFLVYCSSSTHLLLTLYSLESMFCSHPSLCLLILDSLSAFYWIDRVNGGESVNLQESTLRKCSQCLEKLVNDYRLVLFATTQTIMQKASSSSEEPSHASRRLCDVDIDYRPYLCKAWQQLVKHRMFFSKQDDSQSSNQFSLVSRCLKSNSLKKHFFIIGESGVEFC

BCDX2 complex [5] = biological target: T4, BCDX2 complex; test: stopped-flow fluorescence (total amplitude); Kd,net two-step; ATP, Mg2+; EMSA: 20 mM Tris-HCl pH 7.5, 2 mM MgCl2, 2 mM ATP, 37 C, 20 nM DNA, glutaraldehyde fixation; stopped-flow: 25 mM Tris-HCl pH 7.5, 5 mM MgCl2, 50 mM KCl, 2 mM ATP, 0.5 mM EDTA, 10% glycerol, 37 C; BLI: 50 mM Tris-HCl pH 7.5, 2 mM ATP, 50 mM KCl, 5 mM MgCl2, 0.05% Tween 20, room temperature; details: protein: recombinant; tags: Strep-tag and His-tag (XRCC2 N-terminal His); copies: 1;1;1;1; label: Cy3 at 3' or 5'
RAD51;BCDX2 complex = RAD51;BCDX2 complex (human?;human, UniProt Q06609;O15315;O43502;O75771;O43543 1-339;1-384;1-376;1-328;1-280, |); test: stopped-flow fluorescence (global fit); RAD51 binding in presence of BCDX2; ATP, Mg2+; EMSA: 20 mM Tris-HCl pH 7.5, 2 mM MgCl2, 2 mM ATP, 37 C, 20 nM DNA, glutaraldehyde fixation; stopped-flow: 25 mM Tris-HCl pH 7.5, 5 mM MgCl2, 50 mM KCl, 2 mM ATP, 0.5 mM EDTA, 10% glycerol, 37 C; BLI: 50 mM Tris-HCl pH 7.5, 2 mM ATP, 50 mM KCl, 5 mM MgCl2, 0.05% Tween 20, room temperature; details: protein: recombinant;recombinant; tags: ;Strep-tag and His-tag (XRCC2 N-terminal His); copies: 1;1;1;1;1; label: Cy3 at 3' or 5'
RAD51;BCDX2 complex, sequence (Q06609 whole entry, one chain of several): as the sequence (Q06609 whole entry, stated change not applied, one chain of several) above

RAD51 [6] = biological target: T3, RAD51; test: stopped-flow fluorescence (Hill); Kd,1; ATP, Mg2+; EMSA: 20 mM Tris-HCl pH 7.5, 2 mM MgCl2, 2 mM ATP, 37 C, 20 nM DNA, glutaraldehyde fixation; stopped-flow: 25 mM Tris-HCl pH 7.5, 5 mM MgCl2, 50 mM KCl, 2 mM ATP, 0.5 mM EDTA, 10% glycerol, 37 C; BLI: 50 mM Tris-HCl pH 7.5, 2 mM ATP, 50 mM KCl, 5 mM MgCl2, 0.05% Tween 20, room temperature; details: protein: recombinant; chain copies: 10; label: Cy3 at 3' or 5'
BCDX2 complex [7] = biological target: T4, BCDX2 complex; test: stopped-flow fluorescence (global fit); initial complex k1/k-1; 2 mM ATP, 5 mM Mg2+; EMSA: 20 mM Tris-HCl pH 7.5, 2 mM MgCl2, 2 mM ATP, 37 C, 20 nM DNA, glutaraldehyde fixation; stopped-flow: 25 mM Tris-HCl pH 7.5, 5 mM MgCl2, 50 mM KCl, 2 mM ATP, 0.5 mM EDTA, 10% glycerol, 37 C; BLI: 50 mM Tris-HCl pH 7.5, 2 mM ATP, 50 mM KCl, 5 mM MgCl2, 0.05% Tween 20, room temperature; details: protein: recombinant; tags: Strep-tag and His-tag (XRCC2 N-terminal His); copies: 1;1;1;1; label: Cy3 at 3' or 5'
RAD51 [8] = biological target: T3, RAD51; test: stopped-flow fluorescence (global fit); RAD51 without BCDX2; ATP, Mg2+; EMSA: 20 mM Tris-HCl pH 7.5, 2 mM MgCl2, 2 mM ATP, 37 C, 20 nM DNA, glutaraldehyde fixation; stopped-flow: 25 mM Tris-HCl pH 7.5, 5 mM MgCl2, 50 mM KCl, 2 mM ATP, 0.5 mM EDTA, 10% glycerol, 37 C; BLI: 50 mM Tris-HCl pH 7.5, 2 mM ATP, 50 mM KCl, 5 mM MgCl2, 0.05% Tween 20, room temperature; details: protein: recombinant; chain copies: 10; label: Cy3 at 3' or 5'
RAD51;BCDX2(R159A) [9] = biological target: T1, RAD51;BCDX2(R159A); test: BLI; no RAD51 loading by mutant; EMSA: 20 mM Tris-HCl pH 7.5, 2 mM MgCl2, 2 mM ATP, 37 C, 20 nM DNA, glutaraldehyde fixation; stopped-flow: 25 mM Tris-HCl pH 7.5, 5 mM MgCl2, 50 mM KCl, 2 mM ATP, 0.5 mM EDTA, 10% glycerol, 37 C; BLI: 50 mM Tris-HCl pH 7.5, 2 mM ATP, 50 mM KCl, 5 mM MgCl2, 0.05% Tween 20, room temperature; details: protein: recombinant;recombinant; tags: ;; copies: 1;1;1;1;1; label: 5' biotin
RAD51;BCD(R266A)X2 [10] = biological target: T2, RAD51;BCD(R266A)X2; test: as above; details: protein: recombinant;recombinant; tags: ;; copies: 1;1;1;1;1; label: 5' biotin

B1: 20ntRVF (mixed)
DNA 1: GACGCTGCCGAATTCTACCAGTGCCTTGCTATTTTTTTTTTTTTTTTTTTTTTTTT
DNA 2: ATCTGTTGTAATCGTCAAGCTTTATGCCGTT
DNA 3: GAACGGCATAAAGCTTGACGATTACAACAGATCATGGAGCTGTCTAGAGGATCCGACTATCGA
DNA 4: ATCGATAGTCGGATCCTCTAGACAGCTCCATGTAGCAAGGCACTGGTAGAATTCGGCAGCGT
binding result (RAD51;BCDX2(R159A) [1]): binds | binding result (RAD51;BCD(R266A)X2 [2]): binds

TTTTTTTTTTTTTTTTTTTTTTTTTTTTTTTTTTTTTTTTTTT (ssDNA) [Cy3-dT43]
Ka (RAD51 [3]): 0.09 µM⁻¹ | Kd (BCDX2 complex [4]): 310 ± 50 nM | Kd (BCDX2 complex [5]): 220 ± 20 nM | Ka (RAD51;BCDX2 complex): 0.064 nM⁻¹ | Kd (RAD51 [6]): 1600 ± 200 nM | Ka (BCDX2 complex [7]): 3.1 µM⁻¹ | Ka (RAD51 [8]): 0.026 nM⁻¹

TTTTTTTTTTTTTTTTTTTT (ssDNA) [biotin-dT20]
binding result (RAD51;BCDX2(R159A) [9]): no binding | binding result (RAD51;BCD(R266A)X2 [10]): no binding
